The source of these data is patent US6458932 (YEDA RESEARCH AND DEVELOPMENT, dated 2002).

In this test the target is urinary IFNAB-BPII (human) (UniProt P48551). In words: iRIA; control antibody (dilution 1:1) captured on goat anti-mouse F(ab)2, then 125I-IFNAB-BP.
Sequence of urinary IFNAB-BPII (human) (P48551 other isoform, or with tags, fused parts or gaps): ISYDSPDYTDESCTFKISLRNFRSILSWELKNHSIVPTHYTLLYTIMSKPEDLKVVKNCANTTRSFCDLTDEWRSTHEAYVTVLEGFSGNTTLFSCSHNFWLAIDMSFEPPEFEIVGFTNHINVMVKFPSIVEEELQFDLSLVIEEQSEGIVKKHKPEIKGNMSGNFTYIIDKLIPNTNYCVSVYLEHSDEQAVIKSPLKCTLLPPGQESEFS

Turning to Control antibody, the iRIA - CPM stood at 20 cpm.
